The text below walks through data of patent US20250019437A1.

Assay [1] addresses T1, human TREM2 (triggering receptor expressed on myeloid cells 2) (human) (UniProt Q9NZC2).
T1 sequence (looked up): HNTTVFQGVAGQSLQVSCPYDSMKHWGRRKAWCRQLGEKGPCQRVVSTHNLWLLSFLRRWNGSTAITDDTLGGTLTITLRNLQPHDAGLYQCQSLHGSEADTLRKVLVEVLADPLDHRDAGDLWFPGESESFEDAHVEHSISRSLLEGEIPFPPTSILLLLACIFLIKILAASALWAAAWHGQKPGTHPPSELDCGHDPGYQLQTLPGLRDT
In words: 1st screen, 110 nM Ab.

Assay [2] addresses T1, human TREM2 (triggering receptor expressed on myeloid cells 2) (human). In words: 2nd screen, 100 nM Ab.

B1: 6E7 antibody affinity modulation variant V34 (antibody, V domains shown)
VH: EVQLVQSGAEVKKPGESLKISCKGSGYSFTSYWIAWVRQMPGKGLEWMGIIYPGDSDTRYSPSFQGQVTISADKSISTAYLQWSSLKASDTAMYFCARQRTFYYDSSDYFDYWGQGTLVTVSS
VL: DIQMTQSPSSVSASVGDRVTITCRASQGISSWLAWYQQKPGKAPKLLIYAASSLQDGVPSRFSGSGSGTDFTLTISSLQPEDFATYFCQQADSFPRTFGQGTKLEIK
As to B1, the Binding Signal (fold over 6E7 parental antibody) in assay [1] amounted to 0.34 fold; in assay [2] it was 1.02 fold.

B2: 6E7 antibody affinity modulation variant V45 (antibody, V domains shown)
VH: EVQLVQSGAEVKKPGESLKISCKGSGYSFTSYWIAWVRQMPGKGLEWMGIIYPGDSDTRYSPSFQGQVTISADKSISTAYLQWSSLKASDTAMYFCARQRTFYYDSSDYFDYWGQGTLVTVSS
VL: DIQMTQSPSSVSASVGDRVTITCRASQGISSFLAWYQQKPGKAPKLLIYAASSLQNGVPSRFSGSGSGTDFTLTISSLQPEDFATYFCQQADSFPRTFGQGTKLEIK
On to B2, for which the Binding Signal (fold over 6E7 parental antibody) in assay [1] was 0.43 fold; in assay [2], 0.53 fold.

B3: 6E7 antibody affinity modulation variant V47 (antibody, V domains shown)
VH: EVQLVQSGAEVKKPGESLKISCKGSGYSFTSYWIAWVRQMPGKGLEWMGIIYPGDSDTRYSPSFQGQVTISADKSISTAYLQWSSLKASDTAMYFCARQRTFYYDSSDYFDYWGQGTLVTVSS
VL: DIQMTQSPSSVSASVGDRVTITCRASQGISSWLAWYQQKPGKAPKLLIYAASSLQNGVPSRFSGSGSGTDFTLTISSLQPEDFATYFCQQADSFPMTFGQGTKLEIK
With B3, the Binding Signal (fold over 6E7 parental antibody) in assay [1] worked out at 0.42 fold; in assay [2] it was 0.47 fold.

B4: 6E7 antibody affinity modulation variant V56 (antibody, V domains shown)
VH: EVQLVQSGAEVKKPGESLKISCKGSGYSFTSYWIAWVRQMPGKGLEWMGIIYPGDSDTRYQPSFQGQVTISADKSISTAYLQWSSLKASDTAMYFCARQRTFYYDSSDYFDYWGQGTLVTVSS
VL: DIQMTQSPSSVSASVGDRVTITCRASQGISSWLAWYQQKPGKAPKLLIYAASSLQNGVPSRFSGSGSGTDFTLTISSLQPEDFATYFCQQADSFPRTFGQGTKLEIK
B4: the Binding Signal (fold over 6E7 parental antibody) in assay [1] stood at 0.23 fold; in assay [2] it was 0.59 fold.

B5: 6E7 antibody affinity modulation variant V55 (antibody, V domains shown)
VH: EVQLVQSGAEVKKPGESLKISCKGSGYSFTSYWIAWVRQMPGKGLEWMGIIYPGDSDTIYSPSHQGQVTISADKSISTAYLQWSSLKASDTAMYFCARQRTFYYDSSDYFDYWGQGTLVTVSS
VL: DIQMTQSPSSVSASVGDRVTITCRASQGISSWLAWYQQKPGKAPKLLIYAASSLQNGVPSRFSGSGSGTDFTLTISSLQPEDFATYFCQQADSFPRTFGQGTKLEIK
On to B5, for which the Binding Signal (fold over 6E7 parental antibody) in assay [1] was found to be 0.24 fold; in assay [2], 0.66 fold.

B6: 6E7 antibody affinity modulation variant V66 (antibody, V domains shown)
VH: EVQLVQSGAEVKKPGESLKISCKGSGTSFTSYWIAWVRQMPGKGLEWMGIIYPGDSDTRYSPSFQGQVTISADKSISTAYLQWSSLKASDTAMYFCARQRTFYYDSSDYFDYWGQGTLVTVSS
VL: DIQMTQSPSSVSASVGDRVTITCRASQGISSWLAWYQQKPGKAPKLLIYAASSLQNGVPSRFSGSGSGTDFTLTISSLQPEDFATYFCQQADSFPRTFGQGTKLEIK
In the case of B6, the Binding Signal (fold over 6E7 parental antibody) in assay [1] is 0.25 fold; in assay [2] it was 0.74 fold.

B7: 6E7 antibody affinity modulation variant V58 (antibody, V domains shown)
VH: EVQLVQSGAEVKKPGESLKISCKGSGYSFTSYWIAWVRQMPGKGLEWMGIIYPGDSDTRYSPSFQGQVTISADKSISTAYLQWSSLKASDTAMYFCARQRTFYYDSSDYFDYWGQGTLVTVSS
VL: DIQMTQSPSSVSASVGDRVTITCRASQGISSWLAWYQQKPGKAPKLLIYKASSLQNGVPSRFSGSGSGTDFTLTISSLQPEDFATYFCQQADSFPRTFGQGTKLEIK
On to B7, for which the Binding Signal (fold over 6E7 parental antibody) is 0.28 fold in assay [1] and 0.68 fold in assay [2].

B8: 6E7 antibody affinity modulation variant V42 (antibody, V domains shown)
VH: EVQLVQSGAEVKKPGESLKISCKGSGYSFTSAWIAWVRQMPGKGLEWMGIIYPGDSDTRYSPSFQGQVTISADKSISTAYLQWSSLKASDTAMYFCARQRTFYYDSSDYFDYWGQGTLVTVSS
VL: DIQMTQSPSSVSASVGDRVTITCRASQGISSWLAWYQQKPGKAPKLLIYAASSLQNGVPSRFSGSGSGTDFTLTISSLQPEDFATYFCQQADSFPRTFGQGTKLEIK
For B8, the Binding Signal (fold over 6E7 parental antibody) in assay [1] was 0.45 fold; in assay [2] it was 0.41 fold.

B9: 6E7 antibody affinity modulation variant V67 (antibody, V domains shown)
VH: EVQLVQSGAEVKKPGESLKISCKGSGYSFTSYWIAWVRQMPGKGLEWMGMIYPGDSDTRYSPSFQGQVTISADKSISTAYLQWSSLKASDTAMYFCARQRTFYYDSSDYFDYWGQGTLVTVSS
VL: DIQMTQSPSSVSASVGDRVTITCRASQGISSWLAWYQQKPGKAPKLLIYAASSLQNGVPSRFSGSGSGTDFTLTISSLQPEDFATYFCQQADSFPRTFGQGTKLEIK
Take B9: the Binding Signal (fold over 6E7 parental antibody) is 0.8 fold in assay [1] and 0.84 fold in assay [2].

B10: 6E7 antibody affinity modulation variant V46 (antibody, V domains shown)
VH: EVQLVQSGAEVKKPGESLKISCKGSGYSFTSYWIAWVRQMPGKGLEWMGIIYPGDSDTRYSPSFQGQVTISADKSISTAYLQWSSLKASDTAMYFCARQRTFYYDSSDYFDYWGQGTLVTVSS
VL: DIQMTQSPSSVSASVGDRVTITCRASQGISSWLAWYQQKPGKAPKLLIYAASTLQNGVPSRFSGSGSGTDFTLTISSLQPEDFATYFCQQADSFPRTFGQGTKLEIK
With B10, the Binding Signal (fold over 6E7 parental antibody) in assay [1] was determined as 0.83 fold; in assay [2], 0.96 fold.

B11: 6E7 antibody affinity modulation variant V35 (antibody, V domains shown)
VH: EVQLVQSGAEVKKPGESLKISCKGSGYSFTSYWIAWVRQMPGKGLEWMGIIYPGDSDTRYSPSFQGQVTISADKSISTAYLQWSSLKASDTAMYFCARQRTFYYDSSDYFDYWGQGTLVTVSS
VL: DIQMTQSPSSVSASVGDRVTITCRASQGISSWLAWYQQKPGKAPKLLIYAASSLQNGVPSRFSGSGSGTDFTLTISSLQPEDFATYFCQQAYSFPRTFGQGTKLEIK
For B11, the Binding Signal (fold over 6E7 parental antibody) stood at 0.21 fold in assay [1] and 0.29 fold in assay [2].

B12: 6E7 antibody affinity modulation variant V54 (antibody, V domains shown)
VH: EVQLVQSGAEVKKPGESLKISCKGSGYSFTSQWIAWVRQMPGKGLEWMGIIYPGDSDTRYSPSFQGQVTISADKSISTAYLQWSSLKASDTAMYFCARQRTFYYDSSDYFDYWGQGTLVTVSS
VL: DIQMTQSPSSVSASVGDRVTITCRASQGISSWLAWYQQKPGKAPKLLIYAASSLQNGVPSRFSGSGSGTDFTLTISSLQPEDFATYFCQQADSFPRTFGQGTKLEIK
Consider B12, for which the figures for the Binding Signal (fold over 6E7 parental antibody) in assay [1] and in assay [2] were 0.55 fold and 0.54 fold, respectively.

B13: 6E7 antibody affinity modulation variant V44 (antibody, V domains shown)
VH: EVQLVQSGAEVKKPGESLKISCKGSGYSFTSYWIAWVRQMPGKGLEWMGIIYPSDSDTRYSPSFQGQVTISADKSISTAYLQWSSLKASDTAMYFCARQRTFYYDSSDYFDYWGQGTLVTVSS
VL: DIQMTQSPSSVSASVGDRVTITCRASQGISSWLAWYQQKPGKAPKLLIYAASSLQNGVPSRFSGSGSGTDFTLTISSLQPEDFATYFCQQADSFPRTFGQGTKLEIK
Take B13: the Binding Signal (fold over 6E7 parental antibody) in assay [1] came to 0.65 fold; in assay [2], 0.52 fold.

B14: 6E7 antibody affinity modulation variant V59 (antibody, V domains shown)
VH: EVQLVQSGAEVKKPGESLKISCKGSGYSFTSYWIAWVRQMPGKGLEWMGIIYPGDSDTRYSPSFQGQVTISADKSISTAYLQWSSLKASDTAMYFCARQRTFYYDSSDYFDYWGQGTLVTVSS
VL: DIQMTQSPSSVSASVGDRVTITCRASQGISSWLAWYQQKPGKAPKLLIYAASSLQNGVPSRFSGSGSGTDFTLTISSLQPEDFATYFCMQADSFPRTFGQGTKLEIK
For B14, the Binding Signal (fold over 6E7 parental antibody) in assay [1] amounted to 0.19 fold; in assay [2] it was 0.6 fold.

B15: 6E7 antibody affinity modulation variant V68 (antibody, V domains shown)
VH: EVQLVQSGAEVKKPGESLKISCKGSGYSFTSYWIAWVRQMPGKGLEWMGIIYPGDSDTRYSPSFQGQVTISADKSISTAYLQWSSLKASDTAMYFCARQRTFRYDSSDYFDYWGQGTLVTVSS
VL: DIQMTQSPSSVSASVGDRVTITCRASQGISSWLAWYQQKPGKAPKLLIYAASSLQNGVPSRFSGSGSGTDFTLTISSLQPEDFATYFCQQADSFPRTFGQGTKLEIK
On to B15, for which the results for the Binding Signal (fold over 6E7 parental antibody) in assay [1] and in assay [2] were 0.44 fold and 0.43 fold, respectively.

B16: 6E7 antibody affinity modulation variant V57 (antibody, V domains shown)
VH: EVQLVQSGAEVKKPGESLKISCKGSGYSFTSYWIAWVRQMPGKGLEWMGIIYPGDSDTRYSPSFQGQVTISADKSISTAYLQWSSLKASDTAMYFCARQRTFYYDSSDYFDYWGQGTLVTVSS
VL: DIQMTQSPSSVSASVGDRVTITCAASQGISSWLAWYQQKPGKAPKLLIYAASSLQNGVPSRFSGSGSGTDFTLTISSLQPEDFATYFCQQADSFPRTFGQGTKLEIK
In the case of B16, the Binding Signal (fold over 6E7 parental antibody) in assay [1] amounted to 0.84 fold; in assay [2], 0.85 fold.

B17: 6E7 antibody affinity modulation variant V69 (antibody, V domains shown)
VH: EVQLVQSGAEVKKPGESLKISCKGSGYSFTSYWIAWVRQMPGKGLEWMGIIYPGDSDTRYSPSFQGQVTISADKSISTAYLQWSSLKASDTAMYFCARQRTFYYDSSDYFDYWGQGTLVTVSS
VL: DIQMTQSPSSVSASVGDRVTITCRASQGISSYLAWYQQKPGKAPKLLIYAASSLQNGVPSRFSGSGSGTDFTLTISSLQPEDFATYFCQQADSFPRTFGQGTKLEIK
B17: the Binding Signal (fold over 6E7 parental antibody) is 0.41 fold in assay [1] and 0.4 fold in assay [2].

B18: 6E7 antibody affinity modulation variant V43 (antibody, V domains shown)
VH: EVQLVQSGAEVKKPGESLKISCKGSGYSFTSYWIAWVRQMPGKGLEWMGIIYPGDSGTRYSPSFQGQVTISADKSISTAYLQWSSLKASDTAMYFCARQRTFYYDSSDYFDYWGQGTLVTVSS
VL: DIQMTQSPSSVSASVGDRVTITCRASQGISSWLAWYQQKPGKAPKLLIYAASSLQNGVPSRFSGSGSGTDFTLTISSLQPEDFATYFCQQADSFPRTFGQGTKLEIK
For the molecule B18, the Binding Signal (fold over 6E7 parental antibody) amounted to 0.2 fold in assay [1] and 0.33 fold in assay [2].
